# Positions count from the first letter of the chain named.
# B1: VH2/VK2: humanized anti-EphA5 antibody, VH SEQ ID NO:3, VL SEQ ID NO:10 (antibody, V domains shown)
# VH: EVTLVESGGGLVQPGGSLKLSCAASGFTFSTFGIHWVRQAPGKGLEWVAYISGASTTIYYADTVKGRFTISRDNSKNTLYLQMNSLRSEDTAMYYCARYGTSFPYGLDYWGQGTLVTVSS
# VL: DIVMTQSPDSLAVSLGERATINCKASQSVDYDGDSYMNWYQQKPGKAPKLLIYGASNLESGIPDRFSGSGSGTDFTLTISRLEPEDAASYYCQQSNEDPFTFGQGTKLEIK
# B2: VH1/VK2: humanized anti-EphA5 antibody, VH SEQ ID NO:2, VL SEQ ID NO:10 (antibody, V domains shown)
# VH: B1 VH with L18R, L115S
# VL: B1 VL
# B3: VH3/VK3: humanized anti-EphA5 antibody, VH SEQ ID NO:4, VL SEQ ID NO:11 (antibody, V domains shown)
# VH: B1 VH with T3Q
# VL: B1 VL with S89V
# B4: VH3/VK5: humanized anti-EphA5 antibody, VH SEQ ID NO:4, VL SEQ ID NO:13 (antibody, V domains shown)
# VH: B1 VH with T3Q
# VL: B1 VL with A25S, S89V
# B5: VH6/VK3: humanized anti-EphA5 antibody, VH SEQ ID NO:7, VL SEQ ID NO:11 (antibody, V domains shown)
# VH: B1 VH with T3Q, Y50S, T63S, S88A, M93V
# VL: B1 VL with S89V
# B6: VH5/VK5: humanized anti-EphA5 antibody, VH SEQ ID NO:6, VL SEQ ID NO:13 (antibody, V domains shown)
# VH: B1 VH with T3Q, T63S, S88A, M93V
# VL: B1 VL with A25S, S89V
# B7: VH4/VK5: humanized anti-EphA5 antibody, VH SEQ ID NO:5, VL SEQ ID NO:13 (antibody, V domains shown)
# VH: B1 VH with T3Q, S88A, M93V
# VL: B1 VL with A25S, S89V
# B8: VH2/VK1: humanized anti-EphA5 antibody, VH SEQ ID NO:3, VL SEQ ID NO:9 (antibody, V domains shown)
# VH: B1 VH
# VL: B1 VL with D9G, P84E
# B9: VH6/VK2: humanized anti-EphA5 antibody, VH SEQ ID NO:7, VL SEQ ID NO:10 (antibody, V domains shown)
# VH: B1 VH with T3Q, Y50S, T63S, S88A, M93V
# VL: B1 VL
# B10: VH1/VK1: humanized anti-EphA5 antibody, VH SEQ ID NO:2, VL SEQ ID NO:9 (antibody, V domains shown)
# VH: B1 VH with L18R, L115S
# VL: B1 VL with D9G, P84E
# B11: VH3/VK2: humanized anti-EphA5 antibody, VH SEQ ID NO:4, VL SEQ ID NO:10 (antibody, V domains shown)
# VH: B1 VH with T3Q
# VL: B1 VL
# B12: VH3/VK1: humanized anti-EphA5 antibody, VH SEQ ID NO:4, VL SEQ ID NO:9 (antibody, V domains shown)
# VH: B1 VH with T3Q
# VL: B1 VL with D9G, P84E
# B13: VH6/VK1: humanized anti-EphA5 antibody, VH SEQ ID NO:7, VL SEQ ID NO:9 (antibody, V domains shown)
# VH: B1 VH with T3Q, Y50S, T63S, S88A, M93V
# VL: B1 VL with D9G, P84E
# B14: VH2/VK5: humanized anti-EphA5 antibody, VH SEQ ID NO:3, VL SEQ ID NO:13 (antibody, V domains shown)
# VH: B1 VH
# VL: B1 VL with A25S, S89V
# B15: VH2/VK4: humanized anti-EphA5 antibody, VH SEQ ID NO:3, VL SEQ ID NO:12 (antibody, V domains shown)
# VH: B1 VH
# VL: B1 VL with A25S
# B16: VH1/VK3: humanized anti-EphA5 antibody, VH SEQ ID NO:2, VL SEQ ID NO:11 (antibody, V domains shown)
# VH: B1 VH with L18R, L115S
# VL: B1 VL with S89V
# B17: VH2/VK3: humanized anti-EphA5 antibody, VH SEQ ID NO:3, VL SEQ ID NO:11 (antibody, V domains shown)
# VH: B1 VH
# VL: B1 VL with S89V
# B18: VH4/VK2: humanized anti-EphA5 antibody, VH SEQ ID NO:5, VL SEQ ID NO:10 (antibody, V domains shown)
# VH: B1 VH with T3Q, S88A, M93V
# VL: B1 VL
# B19: VH6/VK5: humanized anti-EphA5 antibody, VH SEQ ID NO:7, VL SEQ ID NO:13 (antibody, V domains shown)
# VH: B1 VH with T3Q, Y50S, T63S, S88A, M93V
# VL: B1 VL with A25S, S89V
# B20: VH1/VK4: humanized anti-EphA5 antibody, VH SEQ ID NO:2, VL SEQ ID NO:12 (antibody, V domains shown)
# VH: B1 VH with L18R, L115S
# VL: B1 VL with A25S
# B21: VH4/VK1: humanized anti-EphA5 antibody, VH SEQ ID NO:5, VL SEQ ID NO:9 (antibody, V domains shown)
# VH: B1 VH with T3Q, S88A, M93V
# VL: B1 VL with D9G, P84E
# B22: VH1/VK5: humanized anti-EphA5 antibody, VH SEQ ID NO:2, VL SEQ ID NO:13 (antibody, V domains shown)
# VH: B1 VH with L18R, L115S
# VL: B1 VL with A25S, S89V
# B23: VH6/VK4: humanized anti-EphA5 antibody, VH SEQ ID NO:7, VL SEQ ID NO:12 (antibody, V domains shown)
# VH: B1 VH with T3Q, Y50S, T63S, S88A, M93V
# VL: B1 VL with A25S
# B24: VH5/VK1: humanized anti-EphA5 antibody, VH SEQ ID NO:6, VL SEQ ID NO:9 (antibody, V domains shown)
# VH: B1 VH with T3Q, T63S, S88A, M93V
# VL: B1 VL with D9G, P84E
# Molecular target: T1, rhEphA5 antigen (Homo sapiens, UniProt P54756)
# T1 construct: purchased R and D systems 3036-A5
# Assay: ka (1/Ms)
# Experimental: (§1) Table printed on a drawing sheet, FIG. 13
# Head of the field: ka (1/Ms)
# (§2) The patent's description of the figure: FIG. 13 is a table illustrating the single cycle kinetic parameters of chimeric (VH0/VK0) and humanized 11C12 variants (tested as cell culture supernatants) binding to rhEphA5 antigen as determined using the Biacore T200. The relative KD was calculated by dividing the KD of the humanized variant by that of the VH0/VK0 (top row) assayed in the same experiment. The variants marked with ‘*’ have KD values that are within two-fold of, or are better than, the chimeric antibody. The chimeric and selected variants marked in ‘#’ were identified as the main leads for purification. […]
# (§3) Where the first naming reader finds the target: description_of_the_figure: humanized 11C12 variants (tested as cell culture supernatants) binding to rhEphA5 antigen as determined using the Biacore T200
row,Molecule,ka [M⁻¹ s⁻¹]
1,B1,1.3e+06
2,B2,1.31e-06
3,B3,1.32e+06
4,B4,1.29e+06
5,B5,5.22e-09
6,B6,1.37e-06
7,B7,1.37e-06
8,B8,1.35e-06
9,B9,1.74e-09
10,B10,1.25e-06
11,B11,1.34e+06
12,B12,1.39e+06
13,B13,1.65e-09
14,B14,1.34e+06
15,B15,1.37e-06

# Molecular target: T1, rhEphA5 antigen
# Assay: kd (1/s)
# Experimental: as §1
# Head of the field: kd (1/s)
# as §2, §3
row,Molecule,kd [s⁻¹]
1,B1,0.00126
2,B16,0.00125
3,B17,0.00132
4,B2,0.00126
5,B18,0.00114
6,B3,0.00133
7,B4,0.00143
8,B5,0.341
9,B6,0.0014
10,B7,0.00137
11,B8,0.0012
12,B19,0.285
13,B10,0.00128
14,B11,0.0013
15,B12,0.00123
16,B14,0.0014
17,B20,0.00137
18,B21,0.00129
19,B22,0.00139
20,B23,0.209
21,B24,0.00127
22,B15,0.00126

# Molecular target: T1, rhEphA5 antigen
# Assay: KD (M)
# Experimental: as §1
# Head of the field: KD (M)
# as §2, §3
row,Molecule,Kd [nM]
1,B1,0.971
2,B16,0.948
3,B17,0.985
4,B2,0.968
5,B3,1.01
6,B4,1.1
7,B8,0.89
8,B10,1.02
9,B11,0.968
10,B12,0.884
11,B14,1.05
12,B20,1.1
13,B22,1.12
14,B15,0.917

# — patent publication US12662541B2, “Antibody-drug conjugates against the receptor tyrosine kinase EphA5” (Rutgers, The State University of New Jersey, priority 2021, dated 2026)
